# Target: Glu148 (UniProt position 148, MVLGREGPTVQ)
# Assay: kinetics
# Settings: membrane-reconstituted, turning over in Cl-/36Cl- exchange (Cl- present)
row,Substance,pKa
1,"CLC-ec1 (H+/Cl- exchange transporter ClcA), wild type (Escherichia coli)",6.2±0.1
2,CLC-ec1 E203Q (Escherichia coli; E203Q),6.2±0.5
3,CLC-ec1 Y445L (Escherichia coli; Y445L),4.7±0.1

# From paper PMC3348462
